Data published in IntAct's records for PubMed 12458226.

How the values were obtained:
[1] = target: grip2_rat Grip2 (UniProt Q9WTW1)
[2] = target: grip1_mouse Grip1 (UniProt Q925T6)
Sequence of grip1_mouse Grip1 (Q925T6 whole entry): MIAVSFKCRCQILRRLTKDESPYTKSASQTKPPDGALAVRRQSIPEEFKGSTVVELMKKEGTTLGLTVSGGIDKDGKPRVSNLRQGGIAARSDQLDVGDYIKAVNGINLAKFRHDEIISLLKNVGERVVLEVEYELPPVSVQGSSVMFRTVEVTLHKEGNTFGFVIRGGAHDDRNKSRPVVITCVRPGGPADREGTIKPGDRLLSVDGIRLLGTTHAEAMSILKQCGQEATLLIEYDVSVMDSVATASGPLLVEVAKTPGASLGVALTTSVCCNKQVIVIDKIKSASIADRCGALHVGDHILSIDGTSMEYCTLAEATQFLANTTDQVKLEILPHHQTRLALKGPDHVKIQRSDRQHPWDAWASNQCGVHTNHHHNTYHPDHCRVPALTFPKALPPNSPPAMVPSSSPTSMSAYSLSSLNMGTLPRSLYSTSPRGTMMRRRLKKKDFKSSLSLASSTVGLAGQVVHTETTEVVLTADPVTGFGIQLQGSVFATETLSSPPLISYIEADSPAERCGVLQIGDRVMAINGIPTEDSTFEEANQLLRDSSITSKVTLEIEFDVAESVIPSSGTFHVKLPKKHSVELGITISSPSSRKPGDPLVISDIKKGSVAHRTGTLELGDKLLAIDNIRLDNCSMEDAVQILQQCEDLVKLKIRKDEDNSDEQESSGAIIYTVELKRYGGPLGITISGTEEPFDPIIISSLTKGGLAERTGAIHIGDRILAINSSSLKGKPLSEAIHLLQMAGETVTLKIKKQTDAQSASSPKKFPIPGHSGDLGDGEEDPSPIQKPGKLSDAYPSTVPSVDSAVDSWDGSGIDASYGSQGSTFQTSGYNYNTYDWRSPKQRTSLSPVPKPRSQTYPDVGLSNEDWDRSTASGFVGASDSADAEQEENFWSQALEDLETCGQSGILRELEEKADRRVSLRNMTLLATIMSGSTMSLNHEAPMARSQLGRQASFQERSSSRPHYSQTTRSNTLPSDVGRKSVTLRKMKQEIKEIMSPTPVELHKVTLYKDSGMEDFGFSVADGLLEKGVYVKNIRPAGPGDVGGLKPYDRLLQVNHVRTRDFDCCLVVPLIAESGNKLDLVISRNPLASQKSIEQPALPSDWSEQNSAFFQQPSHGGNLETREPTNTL

Sequence of grip2_rat Grip2 (Q9WTW1 whole entry): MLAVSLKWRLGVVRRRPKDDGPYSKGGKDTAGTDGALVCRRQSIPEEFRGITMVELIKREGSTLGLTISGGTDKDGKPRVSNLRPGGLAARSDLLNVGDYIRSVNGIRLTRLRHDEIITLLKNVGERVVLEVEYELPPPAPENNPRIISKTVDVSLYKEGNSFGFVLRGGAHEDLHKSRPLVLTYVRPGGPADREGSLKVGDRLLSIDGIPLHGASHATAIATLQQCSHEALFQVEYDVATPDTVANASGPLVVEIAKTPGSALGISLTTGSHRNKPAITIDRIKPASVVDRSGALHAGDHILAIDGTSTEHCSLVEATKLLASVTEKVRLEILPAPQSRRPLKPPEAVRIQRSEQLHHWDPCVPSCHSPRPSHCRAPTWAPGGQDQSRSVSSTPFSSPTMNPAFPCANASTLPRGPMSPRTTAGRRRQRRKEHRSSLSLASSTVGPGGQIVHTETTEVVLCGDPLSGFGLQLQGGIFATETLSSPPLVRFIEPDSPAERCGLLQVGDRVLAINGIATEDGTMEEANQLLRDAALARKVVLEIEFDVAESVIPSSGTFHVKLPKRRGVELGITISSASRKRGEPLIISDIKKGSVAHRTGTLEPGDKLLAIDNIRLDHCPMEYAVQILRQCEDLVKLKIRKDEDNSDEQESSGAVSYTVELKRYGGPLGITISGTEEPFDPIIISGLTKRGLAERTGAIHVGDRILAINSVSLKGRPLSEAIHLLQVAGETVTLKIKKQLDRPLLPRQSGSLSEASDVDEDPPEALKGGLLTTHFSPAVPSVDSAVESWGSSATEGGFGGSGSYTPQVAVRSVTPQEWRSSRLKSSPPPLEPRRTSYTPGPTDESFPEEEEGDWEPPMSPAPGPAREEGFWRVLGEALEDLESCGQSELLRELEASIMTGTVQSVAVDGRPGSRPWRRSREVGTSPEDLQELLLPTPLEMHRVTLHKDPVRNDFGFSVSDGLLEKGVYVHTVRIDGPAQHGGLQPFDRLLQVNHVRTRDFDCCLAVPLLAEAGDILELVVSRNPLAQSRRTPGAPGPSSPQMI

Substance	effect of a mutation on the interaction [1]	effect of a mutation on the interaction [2]
Chondroitin sulfate proteoglycan 4 (Mus musculus), Q8VHY0 V2327G	disrupting interaction	disrupting interaction
Chondroitin sulfate proteoglycan 4 (Mus musculus), Q8VHY0 Y2325G	disrupting interaction	disrupting interaction
Chondroitin sulfate proteoglycan 4 (Mus musculus), Q8VHY0 W2326G	disrupting interaction	disrupting interaction
